Reference: patent publication US20240352438A1, “MEANS AND METHODS FOR DETOXIFYING OCHRATOXIN A” (DSM Austria GmbH, priority 2021, published 2024)

Assays:
[1] = Enzymatic activity comparison: activity remaining after 65° C. for 10 min at pH 6.0, relative to SEQ ID NO: 1; assay type: physicochemical
Procedure: To compare the temperature behavior and thermostability of selected enzymes to one another, enzyme was incubated at 65° C. for 10 min at pH 6.0. The enzymatic activity remaining after incubation was compared to the remaining activity of the enzyme of SEQ ID NO: 1 after incubation, the latter being set to 100%, see Table 16.

[2] = OTA detoxification activity assay (specific activity, fluorescence reduction ex/em 390/450 nm); assay type: biochemical; details: SEQ ID NO: 1 = 100%
In short: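 Recombinant enzyme preparation with 200 ng/mL OTA in 100 mM sodium phosphate, at pH 6.0 and pH 7.5, 37° C. Degradation followed as the fall in fluorescence at ex/em 390/450 nm. Specific activity taken from the initial linear slope; one unit degrades 1 μmol OTA per min at a starting OTA of […].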

Molecule | Enzymatic activity remaining after incubation, compared to SEQ ID NO: 1 (set to 100%) [1] | Specific OTA detoxification activities in % compared to the enzyme of SEQ ID NO: 1, pH 6.0 [2] | Specific OTA detoxification activities in % compared to the enzyme of SEQ ID NO: 1, pH 7.5 [2]
287 (protein, exemplary polypeptide) MTTRTRILTAFLSLLAANACAADAAPAAPHTVVLRAARMFDGASGKLVDHPQLTIVGNKIVRIAQGDKAEVPAGAEVVDLGDATLLPGFIDAHVHLSGQSSDNWYGDFFDNMMRFPAEQALYGAYYARITLEAGFTSVRDVGSTDWVALGLRNAIDAGKVPGPRMLVSNYAVGSTGGHADQDPIPPHKLPLAGPLQGVCNGPEECRAAVRYQIKYGANVIKFMPSGGVISLSDPVDAPELSQDEMNAVIGESHAWGRKVAAHAHGDKAAKMAVAAGVDSIEHGSFIEDDTLRAMKAKNVYLVPTISAAAHVEEKIGTFPPVIAEKGRAAAAHLRQTFRHAVQIGVPIALGTDAGVGAHGSNAREFRYMVENGLTPAQALLAGTANAARLLGTFDRVGTLEAGKLADVVAVPGNPIADITVTERPLFVMKDGVVVRRDAVR | 28% | 151% | 105%
292 (protein, exemplary polypeptide) MTTRTRILTAFLSLLAANACAADAAPAAPHTVVLRAARMFDGASGKLVDHPQLTIVGNKIVRIAQGDKAEVPAGAEVVDLGDATLLPGFIDAHVHLSGQSSDNWYGDFFDNMMRFPAEQALYGAYYARITLEAGFTSVRDVGSTDWVALGLRNAIDAGKVPGPRMLVSNYAVGSTGGHADQDPIPPHKLPLAGPLQGVCNGPEECRAAVRYQIKYGANVIKFMPSGGVISLSDPVDAPELSQDEMNAVIGESHAWGRKVAAHAHGDKAAKMAVAAGVDSIEHGSFIEDDTLRAMKAKNVYLVPTISAVAHVEEKIGTFPPVIAEKGRAAAAHLRQTFRHAVQIGVPIALGTDAGVGAHGSNAREFRYMVENGLTPAQALLAGTANAARLLGTFDRVGTLEAGKLADVVAVPGNPIADITVTERPLFVMKDGVVVRRDAVR | 21% | 77% | 81%
297 (protein, exemplary polypeptide) MTTRTRILTAFLSLLAANACAADAAPAAPHTVVLRAARMFDGASGKLVDHPQLTIVGNKIVRIAQGDKAEVPAGAEVVDLGDATLLPGFIDAHVHLSGQSSDNWYGDFFDNMMRFPAEQALYGAYYARITLEAGFTSVRDVGSTDWVALGLRNAIDAGKVPGPRMLVSNYAVGSTGGHADQDPIPPHKLPLAGPLQGVCNGPEECRAAVRYQIKYGANVIKFMPSGGVLSLSDPVDAPELSQDEMNAVIGESHAWGRKVAAHAHGDKAAKMAVAAGVDSIEHGSFIEDDTLRAMKAKNVYLVPTISAIAHVEEKIGTFPPVIAEKGRAAAAHLRQTFRHAVQIGVPIALGTDAAVVAHGSNAREFRYMVENGLTPAQALLAGTANAARLLGTFDRVGTLEAGKLADVVAVPGNPIADITVTERPLFVMKDGVVVRRDAVR | 32% | 182% | 106%
296 (protein, exemplary polypeptide) MTTRTRILTAFLSLLAANACAADAAPAAPHTVVLRAARMFDGASGKLVDHPQLTIVGNKIVRIAQGDKAEVPAGAEVVDLGDATLLPGFIDAHVHLSGQSSDNWYGDFFDNMMRFPAEQALYGAYYARITLEAGFTSVRDVGSTDWVALGLRNAIDAGKVPGPRMLVSNYAVGSTGGHADQDPIPPHKLPLAGPLQGVCNGPEECRAAVRYQIKYGANVIKFMPSGGVLSLSDPVDAPELSQDEMNAVIGESHAWGRKVAAHAHGDKAAKMAVAAGVDSIEHGSFIEDDTLRAMKAKNVYLVPTISAVAHVEEKIGTFPPVIAEKGRAAAAHLRQTFRHAVQIGVPIALGTDAGVYAHGSNAREFRYMVENGLTPAQALLAGTANAARLLGTFDRVGTLEAGKLADVVAVPGNPIADITVTERPLFVMKDGVVVRRDAVR | 43% | 42% | 38%
294 (protein, exemplary polypeptide) MTTRTRILTAFLSLLAANACAADAAPAAPHTVVLRAARMFDGASGKLVDHPQLTIVGNKIVRIAQGDKAEVPAGAEVVDLGDATLLPGFIDAHVHLSGQSSDNWYGDFFDNMMRFPAEQALYGAYYARITLEAGFTSVRDVGSTDWVALGLRNAIDAGKVPGPRMLVSNYAVGSTGGHADQDPIPPHKLPLAGPLQGVCNGPEECRAAVRYQIKYGANVIKFMPSGGVLSLSDPVDAPELSQDEMNAVIGESHAWGRKVAAHAHGDKAAKMAVAAGVDSIEHGSFIEDDTLRAMKAKNVYLVPTISAVAHVEEKIGTFPPVIAEKGRAAAAHLRQTFRHAVQIGVPIALGTDAGVFAHGSNAREFRYMVENGLTPAQALLAGTANAARLLGTFDRVGTLEAGKLADVVAVPGNPIADITVTERPLFVMKDGVVVRRDAVR | 36% | 31% | 42%
291 (protein, exemplary polypeptide) MTTRTRILTAFLSLLAANACAADAAPAAPHTVVLRAARMFDGASGKLVDHPQLTIVGNKIVRIAQGDKAEVPAGAEVVDLGDATLLPGFIDAHVHLSGQSSDNWYGDFFDNMMRFPAEQALYGAYYARITLEAGFTSVRDVGSTDWVALGLRNAIDAGKVPGPRMLVSNYAVGSTGGHADQDPIPPHKLPLAGPLQGVCNGPEECRAAVRYQIKYGANVIKFMPSGGVLSLSDPVDAPELSQDEMNAVIGESHAWGRKVAAHAHGDKAAKMAVAAGVDSIEHGSFIEDDTLRAMKAKNVYLVPTISAAAHVEEKIGTFPPVIAEKGRAAAAHLRQTFRHAVQIGVPIALGTDAGVYAHGSNAREFRYMVENGLTPAQALLAGTANAARLLGTFDRVGTLEAGKLADVVAVPGNPIADITVTERPLFVMKDGVVVRRDAVR | 34% | 77% | 79%
289 (protein, exemplary polypeptide) MTTRTRILTAFLSLLAANACAADAAPAAPHTVVLRAARMFDGASGKLVDHPQLTIVGNKIVRIAQGDKAEVPAGAEVVDLGDATLLPGFIDAHVHLSGQSSDNWYGDFFDNMMRFPAEQALYGAYYARITLEAGFTSVRDVGSTDWVALGLRNAIDAGKVPGPRMLVSNYAVGSTGGHADQDPIPPHKLPLAGPLQGVCNGPEECRAAVRYQIKYGANVIKFMPSGGVLSLSDPVDAPELSQDEMNAVIGESHAWGRKVAAHAHGDKAAKMAVAAGVDSIEHGSFIEDDTLRAMKAKNVYLVPTISAAAHVEEKIGTFPPVIAEKGRAAAAHLRQTFRHAVQIGVPIALGTDAGVFAHGSNAREFRYMVENGLTPAQALLAGTANAARLLGTFDRVGTLEAGKLADVVAVPGNPIADITVTERPLFVMKDGVVVRRDAVR | 63% | 66% | 106%
288 (protein, exemplary polypeptide) MTTRTRILTAFLSLLAANACAADAAPAAPHTVVLRAARMFDGASGKLVDHPQLTIVGNKIVRIAQGDKAEVPAGAEVVDLGDATLLPGFIDAHVHLSGQSSDNWYGDFFDNMMRFPAEQALYGAYYARITLEAGFTSVRDVGSTDWVALGLRNAIDAGKVPGPRMLVSNYAVGSTGGHADQDPIPPHKLPLAGPLQGVCNGPEECRAAVRYQIKYGANVIKFMPSGGVLSLSDPVDAPELSQDEMNAVIGESHAWGRKVAAHAHGDKAAKMAVAAGVDSIEHGSFIEDDTLRAMKAKNVYLVPTISAAAHVEEKIGTFPPVIAEKGRAVAAHLRQTFRHAVQIGVPIALGTDAGVGAHGSNAREFRYMVENGLTPAQALLAGTANAARLLGTFDRVGTLEAGKLADVVAVPGNPIADITVTERPLFVMKDGVVVRRDAVR | 90% | 29% | 31%
295 (protein, exemplary polypeptide) MTTRTRILTAFLSLLAANACAADAAPAAPHTVVLRAARMFDGASGKLVDHPQLTIVGNKIVRIAQGDKAEVPAGAEVVDLGDATLLPGFIDAHVHLSGQSSDNWYGDFFDNMMRFPAEQALYGAYYARITLEAGFTSVRDVGSTDWVALGLRNAIDAGKVPGPRMLVSNYAVGSTGGHADQDPIPPHKLPLAGPLQGVCNGPEECRAAVRYQIKYGANVIKFMPSGGVLSLSDPVDAPELSQDEMNAVIGESHAWGRKVAAHAHGDKAAKMAVAAGVDSIEHGSFIEDDTLRAMKAKNVYLVPTISAVAHVEEKIGTFPPVIAEKGRAAAAHLRQTFRHAVQIGVPIALGTDAGVPAHGSNAREFRYMVENGLTPAQALLAGTANAARLLGTFDRVGTLEAGKLADVVAVPGNPIADITVTERPLFVMKDGVVVRRDAVR | 41% | 95% | 110%
290 (protein, exemplary polypeptide) MTTRTRILTAFLSLLAANACAADAAPAAPHTVVLRAARMFDGASGKLVDHPQLTIVGNKIVRIAQGDKAEVPAGAEVVDLGDATLLPGFIDAHVHLSGQSSDNWYGDFFDNMMRFPAEQALYGAYYARITLEAGFTSVRDVGSTDWVALGLRNAIDAGKVPGPRMLVSNYAVGSTGGHADQDPIPPHKLPLAGPLQGVCNGPEECRAAVRYQIKYGANVIKFMPSGGVLSLSDPVDAPELSQDEMNAVIGESHAWGRKVAAHAHGDKAAKMAVAAGVDSIEHGSFIEDDTLRAMKAKNVYLVPTISAAAHVEEKIGTFPPVIAEKGRAAAAHLRQTFRHAVQIGVPIALGTDAGVPAHGSNAREFRYMVENGLTPAQALLAGTANAARLLGTFDRVGTLEAGKLADVVAVPGNPIADITVTERPLFVMKDGVVVRRDAVR | 53% | 160% | 122%
